# Experimental data from US20170015742A1 (published 2017).
# Where a chain is given by its changes, count along the chain named.
# B1: CODV006 cross-over DVD-Ig (PR-1565084) (bispecific antibody, human IgG1, kappa, L234A L235A)
# heavy: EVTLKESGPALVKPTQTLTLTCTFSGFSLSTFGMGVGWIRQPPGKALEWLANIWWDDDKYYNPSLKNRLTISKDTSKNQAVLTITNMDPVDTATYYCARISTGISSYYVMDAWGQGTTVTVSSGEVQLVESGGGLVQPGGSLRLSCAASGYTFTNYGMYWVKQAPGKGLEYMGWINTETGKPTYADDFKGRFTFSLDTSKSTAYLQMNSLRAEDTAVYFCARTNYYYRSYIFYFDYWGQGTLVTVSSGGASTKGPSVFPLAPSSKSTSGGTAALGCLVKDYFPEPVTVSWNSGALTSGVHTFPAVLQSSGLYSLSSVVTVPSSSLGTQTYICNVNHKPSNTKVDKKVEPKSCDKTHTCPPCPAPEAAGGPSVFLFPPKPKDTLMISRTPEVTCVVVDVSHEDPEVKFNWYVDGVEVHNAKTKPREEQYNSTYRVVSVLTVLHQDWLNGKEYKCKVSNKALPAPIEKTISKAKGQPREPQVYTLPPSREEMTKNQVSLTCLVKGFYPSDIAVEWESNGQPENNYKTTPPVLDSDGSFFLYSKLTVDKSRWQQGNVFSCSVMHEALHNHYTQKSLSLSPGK
# light: DTQLTQSPSSLSASVGDRVTISCRASESVSTHMHWYQQKPGKAPKLLIYGASNLESGVPSRFSGSGSGTDFTLTISSLQPEDFATYFCQQSWNDPFTFGQGTKVEIKGGGSGGGDFQLTQSPSSLSASVGDRVTITCERSSGDIGDTYVSWYQQKPGKAPKNVIYGNDQRPSGVPSRFSGSGSGNSATLTISSLQPEDFATYFCQSYDSDIDIVFGQGTKVEIKGGGSGRTVAAPSVFIFPPSDEQLKSGTASVVCLLNNFYPREAKVQWKVDNALQSGNSQESVTEQDSKDSTYSLSSTLTLSKADYEKHKVYACEVTHQGLSSPVTKSFNRGEC
# B2: CODV008 cross-over DVD-Ig (PR-1565086) (bispecific antibody, human IgG1, kappa, L234A L235A)
# heavy: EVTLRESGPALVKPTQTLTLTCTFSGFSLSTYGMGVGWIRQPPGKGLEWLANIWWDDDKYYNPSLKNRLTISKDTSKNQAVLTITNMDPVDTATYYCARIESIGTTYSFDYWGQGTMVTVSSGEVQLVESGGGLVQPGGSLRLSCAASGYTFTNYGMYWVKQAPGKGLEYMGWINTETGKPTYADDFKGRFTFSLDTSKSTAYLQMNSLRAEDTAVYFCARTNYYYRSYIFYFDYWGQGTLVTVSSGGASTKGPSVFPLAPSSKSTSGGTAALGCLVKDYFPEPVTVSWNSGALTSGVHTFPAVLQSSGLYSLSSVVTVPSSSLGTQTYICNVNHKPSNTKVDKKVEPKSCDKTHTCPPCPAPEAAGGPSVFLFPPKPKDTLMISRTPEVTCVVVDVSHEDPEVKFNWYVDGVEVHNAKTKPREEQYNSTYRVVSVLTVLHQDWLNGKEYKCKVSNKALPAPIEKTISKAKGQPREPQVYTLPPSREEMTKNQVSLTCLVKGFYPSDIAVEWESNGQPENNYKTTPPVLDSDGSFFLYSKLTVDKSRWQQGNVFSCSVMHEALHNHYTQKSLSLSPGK
# light: B1 light with T147S, G166A, N167D, T188S, S209I, D210N
# B3: CODV003 cross-over DVD-Ig (PR-1565044) (bispecific antibody, human IgG1, kappa, L234A L235A)
# heavy: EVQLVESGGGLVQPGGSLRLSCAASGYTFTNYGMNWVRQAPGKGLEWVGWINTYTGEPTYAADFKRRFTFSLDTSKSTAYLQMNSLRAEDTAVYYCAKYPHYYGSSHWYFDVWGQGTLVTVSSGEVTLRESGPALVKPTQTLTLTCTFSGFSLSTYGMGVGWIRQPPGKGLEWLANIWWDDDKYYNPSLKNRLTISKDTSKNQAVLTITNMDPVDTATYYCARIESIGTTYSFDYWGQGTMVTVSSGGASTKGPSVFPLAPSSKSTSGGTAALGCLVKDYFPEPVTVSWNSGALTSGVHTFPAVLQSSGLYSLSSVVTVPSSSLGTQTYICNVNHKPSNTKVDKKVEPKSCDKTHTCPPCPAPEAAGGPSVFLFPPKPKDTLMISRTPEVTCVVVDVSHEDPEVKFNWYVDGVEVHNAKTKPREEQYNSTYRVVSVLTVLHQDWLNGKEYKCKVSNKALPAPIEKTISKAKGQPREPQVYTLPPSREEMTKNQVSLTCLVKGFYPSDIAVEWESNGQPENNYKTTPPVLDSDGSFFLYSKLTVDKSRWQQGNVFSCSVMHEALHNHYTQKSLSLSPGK
# light: DFQLTQSPSSLSASVGDRVTITCERSSGDIGDSYVSWYQQKPGKAPKNVIYADDQRPSGVPSRFSGSGSGNSASLTISSLQPEDFATYFCQSYDINIDIVFGQGTKVEIKGGGSGGGDIQMTQSPSSLSASVGDRVTITCSASQDISNYLNWYQQKPGKAPKVLIYFTSSLHSGVPSRFSGSGSGTDFTLTISSLQPEDFATYYCQQYSTVPWTFGQGTKVEIKGGGSGRTVAAPSVFIFPPSDEQLKSGTASVVCLLNNFYPREAKVQWKVDNALQSGNSQESVTEQDSKDSTYSLSSTLTLSKADYEKHKVYACEVTHQGLSSPVTKSFNRGEC
# B4: 4G8.3-LS-9E8.4 (g) DVD-Ig (PR-1572106) (bispecific antibody, human IgG1, kappa, L234A L235A)
# heavy: EVQLVQSGSELKKPGASVKVSCKASGYTFTNYGMYWVRQAPGQGLEWMGWINTETGKPTYADDFKGRFVFSLDTSVSTAYLQISSLKAEDTAVYYCARTNYYYRSYIFYFDYWGQGTMVTVSSASTKGPSVFPLAPEVTLRESGPALVKPTQTLTLTCTFSGFSLSTYGMGVGWIRQPPGKALEWLANIWWDDDKYYNPSLKNRLTISKDTSKNQVVLTMTNMDPVDTATYYCARIESIGTTYSFDYWGQGTMVTVSSASTKGPSVFPLAPSSKSTSGGTAALGCLVKDYFPEPVTVSWNSGALTSGVHTFPAVLQSSGLYSLSSVVTVPSSSLGTQTYICNVNHKPSNTKVDKKVEPKSCDKTHTCPPCPAPEAAGGPSVFLFPPKPKDTLMISRTPEVTCVVVDVSHEDPEVKFNWYVDGVEVHNAKTKPREEQYNSTYRVVSVLTVLHQDWLNGKEYKCKVSNKALPAPIEKTISKAKGQPREPQVYTLPPSREEMTKNQVSLTCLVKGFYPSDIAVEWESNGQPENNYKTTPPVLDSDGSFFLYSKLTVDKSRWQQGNVFSCSVMHEALHNAYTQKSLSLSPGK
# light: DTVLTQSPATLSLSPGERATLSCRASESVSTHMHWYQQKPGQAPRLLIYGASNLESGVPARFSGSGSGTDFTLTISSLEPEDFAVYFCQQSWNDPFTFGQGTKLEIKRTVAAPEFVLTQSPGTLSLSPGERATLSCERSSGDIGDSYVSWYQQKPGQAPRLVIYADDQRPSGIPDRFSGSGSGTDFTLTISRLEPEDFAVYYCQSYDINIDIVFGGGTKVEIKRTVAAPSVFIFPPSDEQLKSGTASVVCLLNNFYPREAKVQWKVDNALQSGNSQESVTEQDSKDSTYSLSSTLTLSKADYEKHKVYACEVTHQGLSSPVTKSFNRGEC
# B5: 4G8.3-LS-9E8.4E DVD-Ig (PR-1575835) (bispecific antibody, human IgG1, kappa, L234A L235A)
# heavy: B4 heavy
# light: B4 light with D145E
# B6: CODV005 cross-over DVD-Ig (PR-1565083) (bispecific antibody, human IgG1, kappa, L234A L235A)
# heavy: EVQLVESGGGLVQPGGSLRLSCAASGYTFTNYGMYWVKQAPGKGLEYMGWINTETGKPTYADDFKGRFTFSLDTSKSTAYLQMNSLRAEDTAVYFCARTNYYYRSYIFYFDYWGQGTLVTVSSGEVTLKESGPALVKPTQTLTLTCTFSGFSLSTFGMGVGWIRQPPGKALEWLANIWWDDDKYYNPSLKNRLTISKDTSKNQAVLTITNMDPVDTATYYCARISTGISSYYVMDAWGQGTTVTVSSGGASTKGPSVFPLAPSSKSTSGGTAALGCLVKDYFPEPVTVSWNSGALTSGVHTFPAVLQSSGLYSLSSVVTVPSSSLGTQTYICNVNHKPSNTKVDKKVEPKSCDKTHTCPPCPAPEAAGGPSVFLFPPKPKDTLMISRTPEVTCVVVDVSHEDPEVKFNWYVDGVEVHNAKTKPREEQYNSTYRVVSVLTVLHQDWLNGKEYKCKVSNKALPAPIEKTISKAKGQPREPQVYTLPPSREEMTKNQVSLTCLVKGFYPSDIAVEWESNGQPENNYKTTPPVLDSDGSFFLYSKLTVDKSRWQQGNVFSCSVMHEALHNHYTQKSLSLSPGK
# light: DFQLTQSPSSLSASVGDRVTITCERSSGDIGDTYVSWYQQKPGKAPKNVIYGNDQRPSGVPSRFSGSGSGNSATLTISSLQPEDFATYFCQSYDSDIDIVFGQGTKVEIKGGGSGGGDTQLTQSPSSLSASVGDRVTISCRASESVSTHMHWYQQKPGKAPKLLIYGASNLESGVPSRFSGSGSGTDFTLTISSLQPEDFATYFCQQSWNDPFTFGQGTKVEIKGGGSGRTVAAPSVFIFPPSDEQLKSGTASVVCLLNNFYPREAKVQWKVDNALQSGNSQESVTEQDSKDSTYSLSSTLTLSKADYEKHKVYACEVTHQGLSSPVTKSFNRGEC
# B7: CODV007 cross-over DVD-Ig (PR-1565085) (bispecific antibody, human IgG1, kappa, L234A L235A)
# heavy: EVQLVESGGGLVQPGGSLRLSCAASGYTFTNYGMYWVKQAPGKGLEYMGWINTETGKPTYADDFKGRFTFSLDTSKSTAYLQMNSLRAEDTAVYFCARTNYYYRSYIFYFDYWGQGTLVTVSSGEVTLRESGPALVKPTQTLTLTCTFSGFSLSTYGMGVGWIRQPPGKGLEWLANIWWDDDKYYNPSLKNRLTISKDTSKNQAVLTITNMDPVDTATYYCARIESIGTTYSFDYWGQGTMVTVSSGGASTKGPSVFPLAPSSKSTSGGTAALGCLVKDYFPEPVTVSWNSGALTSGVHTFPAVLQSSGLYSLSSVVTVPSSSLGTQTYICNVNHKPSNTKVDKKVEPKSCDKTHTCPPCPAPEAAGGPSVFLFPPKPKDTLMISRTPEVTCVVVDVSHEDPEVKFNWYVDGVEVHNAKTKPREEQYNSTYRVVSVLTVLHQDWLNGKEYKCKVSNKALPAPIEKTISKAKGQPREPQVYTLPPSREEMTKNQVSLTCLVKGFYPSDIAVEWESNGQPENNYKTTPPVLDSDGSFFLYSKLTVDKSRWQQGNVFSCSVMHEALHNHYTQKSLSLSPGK
# light: B6 light with T33S, G52A, N53D, T74S, S95I, D96N
# B8: 9A8.12-GS-9E8.4E DVD-Ig (PR-1577165) (bispecific antibody, human IgG1, kappa, L234A L235A)
# heavy: EVQLVQSGAEVKKPGASVKVSCKASGYTFTNYGMYWVRQAPGQGLEWMGWINTETGKPIYADDFKGRVTMTTDTSTSTAYMELRSLRSDDTAVYYCARVDYDGSFWFAYWGQGTLVTVSSGGGGSGGGGSEVTLRESGPALVKPTQTLTLTCTFSGFSLSTYGMGVGWIRQPPGKALEWLANIWWDDDKYYNPSLKNRLTISKDTSKNQVVLTMTNMDPVDTATYYCARIESIGTTYSFDYWGQGTMVTVSSASTKGPSVFPLAPSSKSTSGGTAALGCLVKDYFPEPVTVSWNSGALTSGVHTFPAVLQSSGLYSLSSVVTVPSSSLGTQTYICNVNHKPSNTKVDKKVEPKSCDKTHTCPPCPAPEAAGGPSVFLFPPKPKDTLMISRTPEVTCVVVDVSHEDPEVKFNWYVDGVEVHNAKTKPREEQYNSTYRVVSVLTVLHQDWLNGKEYKCKVSNKALPAPIEKTISKAKGQPREPQVYTLPPSREEMTKNQVSLTCLVKGFYPSDIAVEWESNGQPENNYKTTPPVLDSDGSFFLYSKLTVDKSRWQQGNVFSCSVMHEALHNAYTQKSLSLSPGK
# light: DTQLTQSPSSLSASVGDRVTITCRASESVSTVIHWYQQKPGKQPKLLIHGASNLESGVPSRFSGSGSGTDFTLTISSLQPEDFATYFCQQHWNDPPTFGQGTKLEIKRGGSGGGGSGEFVLTQSPGTLSLSPGERATLSCERSSGDIGESYVSWYQQKPGQAPRLVIYADDQRPSGIPDRFSGSGSGTDFTLTISRLEPEDFAVYYCQSYDINIDIVFGGGTKVEIKRTVAAPSVFIFPPSDEQLKSGTASVVCLLNNFYPREAKVQWKVDNALQSGNSQESVTEQDSKDSTYSLSSTLTLSKADYEKHKVYACEVTHQGLSSPVTKSFNRGEC
# B9: CODV004 cross-over DVD-Ig (PR-1565051) (bispecific antibody, human IgG1, kappa, L234A L235A)
# heavy: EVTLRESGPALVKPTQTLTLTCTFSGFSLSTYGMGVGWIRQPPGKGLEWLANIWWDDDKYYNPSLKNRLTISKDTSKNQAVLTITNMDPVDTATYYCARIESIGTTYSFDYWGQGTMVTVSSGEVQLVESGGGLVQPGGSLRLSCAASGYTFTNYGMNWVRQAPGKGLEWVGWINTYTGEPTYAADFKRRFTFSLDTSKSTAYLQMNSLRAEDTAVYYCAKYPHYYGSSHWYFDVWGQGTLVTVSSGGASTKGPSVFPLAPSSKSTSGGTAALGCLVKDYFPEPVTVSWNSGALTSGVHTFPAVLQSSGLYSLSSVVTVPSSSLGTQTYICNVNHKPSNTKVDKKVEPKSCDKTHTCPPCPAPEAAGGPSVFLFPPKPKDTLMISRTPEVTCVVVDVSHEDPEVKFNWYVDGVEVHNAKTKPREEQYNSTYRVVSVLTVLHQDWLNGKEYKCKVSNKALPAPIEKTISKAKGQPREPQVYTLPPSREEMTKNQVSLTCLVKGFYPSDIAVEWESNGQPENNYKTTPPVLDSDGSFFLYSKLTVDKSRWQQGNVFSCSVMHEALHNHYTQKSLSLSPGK
# light: DIQMTQSPSSLSASVGDRVTITCSASQDISNYLNWYQQKPGKAPKVLIYFTSSLHSGVPSRFSGSGSGTDFTLTISSLQPEDFATYYCQQYSTVPWTFGQGTKVEIKGGGSGGGDFQLTQSPSSLSASVGDRVTITCERSSGDIGDSYVSWYQQKPGKAPKNVIYADDQRPSGVPSRFSGSGSGNSASLTISSLQPEDFATYFCQSYDINIDIVFGQGTKVEIKGGGSGRTVAAPSVFIFPPSDEQLKSGTASVVCLLNNFYPREAKVQWKVDNALQSGNSQESVTEQDSKDSTYSLSSTLTLSKADYEKHKVYACEVTHQGLSSPVTKSFNRGEC
# B10: 4G8.3-GS(11)-9E8.4 (g) DVD-Ig (PR-1572103) (bispecific antibody, human IgG1, kappa, L234A L235A)
# heavy: EVQLVQSGSELKKPGASVKVSCKASGYTFTNYGMYWVRQAPGQGLEWMGWINTETGKPTYADDFKGRFVFSLDTSVSTAYLQISSLKAEDTAVYYCARTNYYYRSYIFYFDYWGQGTMVTVSSGGGGSGGGGSEVTLRESGPALVKPTQTLTLTCTFSGFSLSTYGMGVGWIRQPPGKALEWLANIWWDDDKYYNPSLKNRLTISKDTSKNQVVLTMTNMDPVDTATYYCARIESIGTTYSFDYWGQGTMVTVSSASTKGPSVFPLAPSSKSTSGGTAALGCLVKDYFPEPVTVSWNSGALTSGVHTFPAVLQSSGLYSLSSVVTVPSSSLGTQTYICNVNHKPSNTKVDKKVEPKSCDKTHTCPPCPAPEAAGGPSVFLFPPKPKDTLMISRTPEVTCVVVDVSHEDPEVKFNWYVDGVEVHNAKTKPREEQYNSTYRVVSVLTVLHQDWLNGKEYKCKVSNKALPAPIEKTISKAKGQPREPQVYTLPPSREEMTKNQVSLTCLVKGFYPSDIAVEWESNGQPENNYKTTPPVLDSDGSFFLYSKLTVDKSRWQQGNVFSCSVMHEALHNAYTQKSLSLSPGK
# light: DTVLTQSPATLSLSPGERATLSCRASESVSTHMHWYQQKPGQAPRLLIYGASNLESGVPARFSGSGSGTDFTLTISSLEPEDFAVYFCQQSWNDPFTFGQGTKLEIKRGGSGGGGSGGEFVLTQSPGTLSLSPGERATLSCERSSGDIGDSYVSWYQQKPGQAPRLVIYADDQRPSGIPDRFSGSGSGTDFTLTISRLEPEDFAVYYCQSYDINIDIVFGGGTKVEIKRTVAAPSVFIFPPSDEQLKSGTASVVCLLNNFYPREAKVQWKVDNALQSGNSQESVTEQDSKDSTYSLSSTLTLSKADYEKHKVYACEVTHQGLSSPVTKSFNRGEC
# B11: 4G8.3-GS(noR)-9E8.4 (g) DVD-Ig (PR-1572104) (bispecific antibody, human IgG1, kappa, L234A L235A)
# heavy: B10 heavy
# light: DTVLTQSPATLSLSPGERATLSCRASESVSTHMHWYQQKPGQAPRLLIYGASNLESGVPARFSGSGSGTDFTLTISSLEPEDFAVYFCQQSWNDPFTFGQGTKLEIKGGSGGGGSGGEFVLTQSPGTLSLSPGERATLSCERSSGDIGDSYVSWYQQKPGQAPRLVIYADDQRPSGIPDRFSGSGSGTDFTLTISRLEPEDFAVYYCQSYDINIDIVFGGGTKVEIKRTVAAPSVFIFPPSDEQLKSGTASVVCLLNNFYPREAKVQWKVDNALQSGNSQESVTEQDSKDSTYSLSSTLTLSKADYEKHKVYACEVTHQGLSSPVTKSFNRGEC
# Target: recombinant human PDGF-BB (human, UniProt P01127 82-190)
# Test: cell-based or functional assay
# Chain of recombinant human PDGF-BB (P01127 82-190 limits assumed): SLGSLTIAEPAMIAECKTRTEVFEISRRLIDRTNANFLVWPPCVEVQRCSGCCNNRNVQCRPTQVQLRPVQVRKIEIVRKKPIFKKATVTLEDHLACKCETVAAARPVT
row,Binder,NIH-3T3 hPDGF-BB Potency IC50 [nM]
1,B1,> 5
2,B2,> 5
3,B3,> 5
4,B4,0.109
5,B5,0.176
6,B6,> 5
7,B7,> 5
8,B8,0.204
9,B9,> 5
10,B10,0.298
11,B11,0.095
